The text below walks through data of patent US20210263044A1.

For this assay, the target named is Protein G bound to porous resin beads (Pierce Biotechnology, Protein G UltraLink resin) (UniProt P19909). As to the kind of experiment: 100 ug IgG mixed with 10 uL Protein G resin bead suspension; supernatant analysed by SDS-PAGE, band pixels.

Take human immunoglobulin G (IgG) (antibody): the residual amount of antibody (unbound IgG remaining in the supernatant) amounted to 3%.
